How the values were obtained:
Settings in all cases: both partners purified
[1] = molecular target: client-transfer complex (Hsp90)2(Hop)1(Hsp70)2(GR)1 (human, UniProt P07900 1-732; P31948 1-543; P0DMV8 1-641; P04150 521-777, F602S); assay: native MS; (Hsp70)2, GR, Hop and (Hsp90)2 all at 0.5 μM with Hsp40 and excess ATP; then an equimolar ratio of FKBP52 added to the formed complex
Hsp90 [2] = molecular target: T1, Hsp90 (human, UniProt P07900 1-732); assay: native MS; as a12 (Hsp90/Hsp70/Hop/GR/Hsp40/p23/FKBP51), then challenged with excess FKBP52
Hsp90 [3] = molecular target: T1, Hsp90; assay: native MS; Hsp90_(2) 3 μM with FKBP51 and FKBP52 in twofold molar excess (6 μM), the highest concentrations studied
Hsp90 [4] = molecular target: T1, Hsp90; assay: native MS; Hsp90_(2) 1 μM with 2 μM of both FKBP51 and FKBP52
Hsp90 [5] = molecular target: T1, Hsp90; assay: native MS; competition: Hsp90_(2) with Hop, FKBP51 and FKBP52, all at equimolar concentration (3 μM)
Hsp90 [6] = molecular target: T1, Hsp90; assay: native MS; (Hsp70)2, GR, Hop and (Hsp90)2 all at 0.5 μM with Hsp40 and excess ATP; then an equimolar ratio of FKBP52 added to the formed complex
Hsp90 [7] = molecular target: T1, Hsp90; assay: native MS; p23 added to the client-transfer complex without immunophilin, with ATP; MS/MS (collision-induced dissociation) of the isolated 32+ charge state of (Hsp90)2(p23)2(GR)1
Hsp90 [8] = molecular target: T1, Hsp90; assay: native MS; as a8, then stoichiometric p23 added (300 μM ATP magnesium acetate, a further 15 min)

B1: FKBP52 (natural protein, human, UniProt Q02790 1-459, looked up)
chain: MTAEEMKATESGAQSAPLPMEGVDISPKQDEGVLKVIKREGTGTEMPMIGDRVFVHYTGWLLDGTKFDSSLDRKDKFSFDLGKGEVIKAWDIAIATMKVGEVCHITCKPEYAYGSAGSPPKIPPNATLVFEVELFEFKGEDLTEEEDGGIIRRIQTRGEGYAKPNEGAIVEVALEGYYKDKLFDQRELRFEIGEGENLDLPYGLERAIQRMEKGEHSIVYLKPSYAFGSVGKEKFQIPPNAELKYELHLKSFEKAKESWEMNSEEKLEQSTIVKERGTVYFKEGKYKQALLQYKKIVSWLEYESSFSNEEAQKAQALRLASHLNLAMCHLKLQAFSAAIESCNKALELDSNNEKGLFRRGEAHLAVNDFELARADFQKVLQLYPNNKAAKTQLAVCQQRIRRQLAREKKLYANMFERLAEEENKAKAEASSGDHPTDTEMKEEQKSNTAGSQSQVETEA
notes: FKBP52, human immunophilin; The cited PDB entries hold overlapping segments of FKBP52, not the construct used here; source: provided by Sophie Jackson and David Agard's labs; expressed and purified as previously described [33]
- stoichiometry N [1]: 1 per client-transfer complex
- stoichiometry N (Hsp90 [2]): 1 per Hsp90 monomer
- stoichiometry N (Hsp90 [3]): ≤ 2 per Hsp90 monomer
- stoichiometry N (Hsp90 [4]): ≤ 2 per Hsp90 dimer
- stoichiometry N (Hsp90 [5]): 1 per Hsp90 dimer

B2: glucocorticoid receptor ligand-binding domain (residues 521-777, F602S) (domain or fragment, human, UniProt P04150 521-777, looked up)
chain: VPATLPQLTPTLVSLLEVIEPEVLYAGYDSSVPDSTWRIMTTLNMLGGRQVIAAVKWAKAIPGFRNLHLDDQMTLLQYSWMSLMAFALGWRSYRQSSANLLCFAPDLIINEQRMTLPCMYDQCKHMLYVSSELHRLQVSYEEYLCMKTLLLLSSVPKDGLKSQELFDEIRMTYIKELGKAIVKREGNSSQNWQRFYQLTKLLDSMHEVVENLLNYCFQTFLDKTMSIEFPEMLAEIITNQIPKYSNGNIKKLLFHQK
notes: Used without ligand; also called GR; source: provided by Sophie Jackson and David Agard's labs; expressed and purified as previously described [33]
- stoichiometry N (Hsp90 [6]): 1 per Hsp90 dimer

B3: p23 (natural protein, human, UniProt Q15185 1-160, looked up)
chain: MQPASAKWYDRRDYVFIEFCVEDSKDVNVNFEKSKLTFSCLGGSDNFKHLNEIDLFHCIDPNDSKHKRTDRSILCCLRKGESGQSWPRLTKERAKLNWLSVDFNNWKDWEDDSDEDMSNFDRFSEMMNNMGGDEDVDLPEVDGADDDSQDSDDEKMPDLE
notes: p23 co-chaperone, human; source: provided by Sophie Jackson and David Agard's labs; expressed and purified as previously described [33]
- stoichiometry N (Hsp90 [7]): 2 per Hsp90 dimer
- stoichiometry N (Hsp90 [8]): 1 per Hsp90 dimer
